According to US20110300138A1 (published 2011):
Where two headings read alike, the source gives them in different places.

What was measured:
[1] = target: TSHR260-alkaline phosphatase (TSHR260-AP) (human) (UniProt P05187); assay: TSHR260-AP bridge ELISA, full length TSHR on wells; 10 µg/mL, diluted in HBD
TSHR260-AP (human) [2] = assay: TSHR260-AP bridge ELISA (full length TSHR on wells, TSHR260-AP in solution); IgG 0.005 µg/mL diluted in HBD serum
[3] = target: human TSH receptor (full length, wild type) expressed in CHO cells (human) (UniProt P16473); assay: cell-based or functional assay
[4] = target: human TSHR (wild type, full length) expressed in CHO cells (human) (UniProt P16473); assay: cell-based or functional assay
[5] = target: TSHR260-alkaline phosphatase (TSHR260-AP) (human) (UniProt P05187); assay: TSHR260-AP bridge ELISA, full length TSHR on wells; 0.05 µg/mL, diluted in assay buffer
[6] = target: TSHR260-alkaline phosphatase (TSHR260-AP) (human) (UniProt P05187); assay: TSHR260-AP bridge ELISA, full length TSHR on wells; 0.05 µg/mL, diluted in HBD
TSHR260-AP (human) [7] = assay: TSHR260-AP bridge ELISA (full length TSHR on wells, TSHR260-AP in solution); IgG 1 µg/mL diluted in assay buffer
TSHR260-AP (human) [8] = assay: TSHR260-AP bridge ELISA (full length TSHR on wells, TSHR260-AP in solution); IgG 10 µg/mL diluted in assay buffer
[9] = target: TSHR260-alkaline phosphatase (TSHR260-AP) (human) (UniProt P05187); assay: TSHR260-AP bridge ELISA, full length TSHR on wells; 0.1 µg/mL, diluted in HBD
TSHR260-AP (human) [10] = assay: TSHR260-AP bridge ELISA (full length TSHR on wells, TSHR260-AP in solution); IgG 100 µg/mL diluted in HBD serum
[11] = target: TSHR260-alkaline phosphatase (TSHR260-AP) (human) (UniProt P05187); assay: TSHR260-AP bridge ELISA, full length TSHR on wells; 0.1 µg/mL, diluted in assay buffer
TSHR260-AP (human) [12] = assay: TSHR260-AP bridge ELISA (full length TSHR on wells, TSHR260-AP in solution); IgG 0.01 µg/mL diluted in HBD serum
[13] = target: human TSHR (wild type, full length) expressed in CHO cells (human) (UniProt P16473); assay: cell-based or functional assay; remark: listed apart in the source
[14] = target: human TSH receptor (full length, wild type) expressed on CHO cells (human) (UniProt P16473); assay: cell-based or functional assay
[15] = target: human TSHR expressed in CHO cells (human) (UniProt P16473); assay: cell-based or functional assay
[16] = target: human TSH receptor (full length, wild type) expressed in CHO cells (human) (UniProt P16473); assay: cell-based or functional assay; remark: listed apart in the source
[17] = target: human TSH receptor (TSHR), wild type, expressed in CHO cells (human) (UniProt P16473); assay: cell-based or functional assay
[18] = target: human TSHR (thyroid stimulating hormone receptor) expressed in transfected CHO cells (human) (UniProt P16473); assay: cell-based or functional assay
[19] = target: human TSH receptor (wild type), expressed on transfected CHO cells (human) (UniProt P16473); assay: cell-based or functional assay

5B3 IgG (antibody)
Mean absorbance at 405 nm (absorbance at 405 nm) [1]: -0.006 | Mean absorbance at 405 nm (absorbance at 405 nm) (TSHR260-AP (human) [2]): -0.002 | % Inhibition; T4 serum + 100 µg/mL 5B3 IgG [3]: 30.3% | % Inhibition; T5 serum + 100 µg/mL 5B3 IgG [3]: 0% | % Inhibition; T6 serum + 100 µg/mL 5B3 IgG [3]: 1.8% | Cyclic AMP concentration; 100 µg/mL 5B3 IgG alone [3]: 2.6 pmol/mL | Cyclic AMP concentration; HBD + 100 µg/mL 5B3 IgG [3]: 3 pmol/mL | Cyclic AMP concentration; T4 serum + 100 µg/mL 5B3 IgG [3]: 55 pmol/mL | Cyclic AMP concentration; T5 serum + 100 µg/mL 5B3 IgG [3]: 66.7 pmol/mL | Cyclic AMP concentration; T6 serum + 100 µg/mL 5B3 IgG [3]: 81.5 pmol/mL | % Inhibition of T13 serum stimulation; 100 µg/mL 5B3 IgG [4]: 22.5% | % Inhibition of T14 serum stimulation; 100 µg/mL 5B3 IgG [4]: 24.6% | % Inhibition of T15 serum stimulation; 100 µg/mL 5B3 IgG [4]: 18.3% | Cyclic AMP concentration; 100 µg/mL 5B3 IgG alone [4]: 4.1 pmol/mL | Cyclic AMP concentration; HBD + 100 µg/mL 5B3 IgG [4]: 5.1 pmol/mL | Cyclic AMP concentration; T13 serum + 100 µg/mL 5B3 IgG [4]: 37.6 pmol/mL | Cyclic AMP concentration; T14 serum + 100 µg/mL 5B3 IgG [4]: 20.5 pmol/mL | Cyclic AMP concentration; T15 serum + 100 µg/mL 5B3 IgG [4]: 41.9 pmol/mL | Mean absorbance at 405 nm (absorbance at 405 nm) [5]: -0.009 | Mean absorbance at 405 nm (absorbance at 405 nm) [6]: -0.006 | Mean absorbance at 405 nm (absorbance at 405 nm) (TSHR260-AP (human) [7]): -0.004 | Mean absorbance at 405 nm (absorbance at 405 nm) (TSHR260-AP (human) [8]): -0.014 | Mean absorbance at 405 nm (absorbance at 405 nm) [9]: -0.002 | Mean absorbance at 405 nm (absorbance at 405 nm) (TSHR260-AP (human) [10]): 0.003 | Mean absorbance at 405 nm (absorbance at 405 nm) [11]: -0.013 | Mean absorbance at 405 nm (absorbance at 405 nm) (TSHR260-AP (human) [12]): 0.027 | % Inhibition of T5 serum stimulation; 0.1 µg/mL 5B3 IgG [13]: 7% | % Inhibition of T5 serum stimulation; 1 µg/mL 5B3 IgG [13]: 4.1% | % Inhibition of T5 serum stimulation; 10 µg/mL 5B3 IgG [13]: 3.1% | % Inhibition of T5 serum stimulation; 100 µg/mL 5B3 IgG [13]: 12.5% | Cyclic AMP concentration; 0.1 µg/mL 5B3 IgG + T5 [13]: 59.4 pmol/mL | Cyclic AMP concentration; 1 µg/mL 5B3 IgG + T5 [13]: 61.3 pmol/mL | Cyclic AMP concentration; 10 µg/mL 5B3 IgG + T5 [13]: 61.9 pmol/mL | Cyclic AMP concentration; 100 µg/mL 5B3 IgG + T5 [13]: 55.9 pmol/mL | Cyclic AMP concentration; 100 µg/mL 5B3 IgG alone [13]: 1.1 pmol/mL | % Inhibition of M22 IgG (3 ng/mL) stimulation; 100 µg/ml 5B3 IgG [14]: 0% | % Inhibition of pTSH (1 ng/mL) stimulation; 10 µg/mL 5B3 IgG [14]: 0% | % Inhibition of pTSH (1 ng/mL) stimulation; 100 µg/mL 5B3 IgG [14]: 0% | Cyclic AMP concentration in hypotonic medium; 100 µg/mL 5B3 IgG alone [14]: 2.2 pmol/mL | Cyclic AMP concentration in isotonic medium; 100 µg/mL 5B3 IgG alone [14]: 1.4 pmol/mL | Cyclic AMP concentration; 1 ng/mL pTSH + 10 µg/mL 5B3 IgG [14]: 80.7 pmol/mL | Cyclic AMP concentration; 1 ng/mL pTSH + 100 µg/mL 5B3 IgG [14]: 79.3 pmol/mL | Cyclic AMP concentration; 3 ng/mL M22 IgG + 100 µg/ml 5B3 IgG [14]: 41.8 pmol/mL | Cyclic AMP concentration; 100 µg/mL 5B3 IgG alone (no TSH) [14]: 2.6 pmol/mL | Cyclic AMP concentration; 5B3 IgG 100 µg/mL alone [14]: 1.2 pmol/mL | % Inhibition; 3 ng/mL pTSH + 10 µg/mL 5B3 IgG [15]: 7% | % Inhibition; 3 ng/mL pTSH + 100 µg/mL 5B3 IgG [15]: 7% | % Inhibition; 5B3 IgG 10 µg/mL + 3 ng/mL pTSH [15]: 0% | % Inhibition; 5B3 IgG 100 µg/mL + 3 ng/mL pTSH [15]: 0% | % Inhibition; T1 serum + 100 µg/mL 5B3 IgG [16]: 4.9% | % Inhibition; T2 serum + 100 µg/mL 5B3 IgG [16]: 0% | % Inhibition; T3 serum + 100 µg/mL 5B3 IgG [16]: 14.4% | Cyclic AMP concentration; 100 µg/mL 5B3 IgG alone [16]: 1 pmol/mL | Cyclic AMP concentration; HBD + 100 µg/mL 5B3 IgG [16]: 2 pmol/mL | Cyclic AMP concentration; T1 serum + 100 µg/mL 5B3 IgG [16]: 94.9 pmol/mL | Cyclic AMP concentration; T2 serum + 100 µg/mL 5B3 IgG [16]: 62 pmol/mL | Cyclic AMP concentration; T3 serum + 100 µg/mL 5B3 IgG [16]: 54.2 pmol/mL | Cyclic AMP concentration in hypotonic medium; 1 µg/mL 5B3 IgG + 3 ng/mL pTSH [17]: 71.9 pmol/mL | Cyclic AMP concentration in hypotonic medium; 3 µg/mL 5B3 IgG + 3 ng/mL pTSH [17]: 75.7 pmol/mL | Cyclic AMP concentration in hypotonic medium; 3 µg/mL 5B3 IgG alone [17]: 1.9 pmol/mL | Cyclic AMP concentration in isotonic medium; 1 µg/mL 5B3 IgG + 3 ng/mL pTSH [17]: 39.5 pmol/mL | Cyclic AMP concentration in isotonic medium; 3 µg/mL 5B3 IgG + 3 ng/mL pTSH [17]: 42.5 pmol/mL | Cyclic AMP concentration in isotonic medium; 3 µg/mL 5B3 IgG alone [17]: 0.5 pmol/mL | % Inhibition; 3 ng/mL M22 IgG + 10 µg/mL 5B3 IgG [18]: 0% | % Inhibition; 3 ng/mL M22 IgG + 100 µg/mL 5B3 IgG [18]: 0% | Cyclic AMP concentration; 3 ng/mL M22 IgG + 10 µg/mL 5B3 IgG [18]: 44.7 pmol/mL | Cyclic AMP concentration; 3 ng/mL M22 IgG + 100 µg/mL 5B3 IgG [18]: 51.3 pmol/mL | Cyclic AMP concentration; 100 µg/mL 5B3 IgG [18]: 2.3 pmol/mL | % Inhibition (constitutive activity); 0.01 µg/mL 5B3 IgG [19]: 0% | % Inhibition (constitutive activity); 0.1 µg/mL 5B3 IgG [19]: 0% | % Inhibition (constitutive activity); 0.2 µg/mL 5B3 IgG [19]: 8.2% | % Inhibition (constitutive activity); 1 µg/mL 5B3 IgG [19]: 6.3% | % Inhibition (constitutive activity); 2 µg/mL 5B3 IgG [19]: 12.9% | % Inhibition; 5B3 IgG 0.1 µg/mL + T11 [19]: 29.8% | % Inhibition; 5B3 IgG 1 µg/mL + T11 [19]: 21.4% | % Inhibition; 5B3 IgG 10 µg/mL + T11 [19]: 25.4% | % Inhibition; 5B3 IgG 100 µg/mL + T11 [19]: 27% | % Inhibition; pTSH 3 ng/mL + 10 µg/mL 5B3 [19]: 0% | % Inhibition; pTSH 3 ng/mL + 100 µg/mL 5B3 [19]: 0.5% | Cyclic AMP concentration; 100 µg/mL 5B3 alone [19]: 0.9 pmol/mL | Cyclic AMP concentration; 5B3 IgG 0.1 µg/mL + T11 [19]: 17.7 pmol/mL | Cyclic AMP concentration; 5B3 IgG 1 µg/mL + T11 [19]: 19.8 pmol/mL | Cyclic AMP concentration; 5B3 IgG 10 µg/mL + T11 [19]: 18.8 pmol/mL | Cyclic AMP concentration; 5B3 IgG 100 µg/mL + T11 [19]: 18.4 pmol/mL | Cyclic AMP concentration; 5B3 IgG 100 µg/mL alone [19]: 1 pmol/mL | Cyclic AMP concentration; pTSH 3 ng/mL + 10 µg/mL 5B3 [19]: 66.9 pmol/mL | Cyclic AMP concentration; pTSH 3 ng/mL + 100 µg/mL 5B3 [19]: 63.9 pmol/mL | Cyclic AMP production (constitutive activity); 0.01 µg/mL 5B3 IgG [19]: 58.2 pmol/mL | Cyclic AMP production (constitutive activity); 0.1 µg/mL 5B3 IgG [19]: 58.8 pmol/mL | Cyclic AMP production (constitutive activity); 0.2 µg/mL 5B3 IgG [19]: 53.3 pmol/mL | Cyclic AMP production (constitutive activity); 1 µg/mL 5B3 IgG [19]: 54.4 pmol/mL | Cyclic AMP production (constitutive activity); 2 µg/mL 5B3 IgG [19]: 50.6 pmol/mL
